The results in this text go back to patent US20140288003A1.

The target of this experiment is Smad3. The experiment is described as follows: cell-based or functional assay.

Substance “scleraxis (mouse Scx expressed from pECE-HA-FLAG-Scx) (from UniProt Q64124 1-207)” came in with an activation of the collagen 1α2 proximal promoter (luciferase assay, NIH 3T3 fibroblasts co-transfected with Scx and Smad3) of 35 % increase.
